Measured values taken from PMC8795186, “Structural basis for safe and efficient energy conversion in a respiratory supercomplex” (Nature Communications, 2022).

B1: QcrA, Rieske-type iron-sulfur subunit of the cyt bcc complex (natural protein, Corynebacterium glutamicum, UniProt Q79VE8 1-408, looked up)
chain: MSNNNDKQYTTQELNAMSNEDLARLGTELDDVTIAYRKERFPIANDPAEKRAARAVTFWLVLGIIGGLGFLATYIFWPWEYKAHGDEGLLAYTLYTPMLGITSGLCILSLGFAVVLYVKKFIPEEIAVQRRHDGPSEEVDRRTIVALLNDSWQTSTLGRRKLIMGLAGGGAVLAGLTIIAPMGGMIKNPWNPKEGPMDVQGDGTLWTSGWTLVENDVKVYLGRDTAAIAESHTDATGEHWSTTGVSRLVRMRPEDLAAASMETVFPLPAEMVNDGAEYDPAKDVYEHQMHSVHGPRNAVMLIRLRTADAEKVIEREGQESFHYGDYYAYSKICTHIGCPTSLYEAQTNRILCPCHQSQFDALHYGKPVFGPAARALPQLPITVDEEGYLIAAGNFIEPLGPAFWERKS
notes: QcrA, Rieske-type iron-sulfur (2Fe-2S) subunit of the cytochrome bcc complex, Corynebacterium glutamicum; Carries the 2Fe-2S cluster (ligands His335, His355); QcrA crosses the dimer; also called QcrA´ (the copy of the second protomer); Rieske homologous subunit; source: endogenous, purified from C. glutamicum membranes as part of the supercomplex (DDM, DEAE Sepharose, size exclusion)
B2: QcrB, cytochrome b subunit of the cyt bcc complex (natural protein, Corynebacterium glutamicum, UniProt Q79VE9 1-539, looked up)
chain: MSLATVGNNLDSRYTMASGIRRQINKVFPTHWSFMLGEIALYSFIVLLLTGVYLTLFFDPSITKVIYDGGYLPLNGVEMSRAYATALDISFEVRGGLFIRQMHHWAALLFVVSMLVHMLRIFFTGAFRRPREANWIIGVVLIILGMAEGFMGYSLPDDLLSGVGLRIMSAIIVGLPIIGTWMHWLIFGGDFPSDLMLDRFYIAHVLIIPAILLGLIAAHLALVWYQKHTQFPGAGRTENNVIGIRIMPLFAVKAVAFGLIVFGFLALLAGVTTINAIWNLGPYNPSQVSAGSQPDVYMLWTDGAARVMPAWELYLGNYTIPAVFWVAVMLGILVVLLVTYPFIERKFTGDDAHHNLLQRPRDVPVRTSLGVMALVFYILLTVSGGNDVYAMQFHVSLNAMTWIGRIGLIVGPAIAYFITYRLCIGLQRSDREVLEHGIETGIIKQMPNGAFIEVHQPLGPVDDHGHPIPLPYAGAAVPKQMNQLGYAEVETRGGFFGPDPEDIRAKAKEIEHANHIEEANTLRALNEANIERDKNEGKN
notes: QcrB, cytochrome b subunit (haem bL, haem bH) of the cytochrome bcc complex, Corynebacterium glutamicum; has a 102 residue C-terminal extension; source: endogenous, purified from C. glutamicum membranes as part of the supercomplex (DDM, DEAE Sepharose, size exclusion)
B3: CtaE, subunit of the cyt aa3 oxidase (natural protein, Corynebacterium glutamicum, UniProt Q9AEL8 1-205, looked up)
chain: MTSAVGNTGMAAPQRVAALNRPNMVSVGTIVFLSQELMFFAGLFAMYFVSRANGLANGSWGEQTDHLNVPYALLITVILVSSSVTCQFGVFAAERGDVYGLRKWFLVTIILGSIFVIGQGYEYITLVGHGLTIQSSVYGSAFFITTGFHALHVIAGVMAFVVVLMRIHKSKFTPAQATAAMVVSYYWHFVDVVWIGLFITIYFIQ
notes: CtaE, subunit of the cytochrome aa3 oxidase, Corynebacterium glutamicum; source: endogenous, purified from C. glutamicum membranes as part of the supercomplex (DDM, DEAE Sepharose, size exclusion)
B4: CtaF, subunit of the cyt aa3 oxidase (natural protein, Corynebacterium glutamicum, UniProt Q8NNK3 1-143, looked up)
chain: MKSSAKLMYGPTVFMAAMAVIYIFATMHVSDGGSVKGVEWVGSVALVLSAGLTLMLGVYLHFTEVRVDVLPEDWEEAEVADKAGTLGFFSPSSIWPAAMSGAVGFLAFGVVYFHYWMIAVGLMLLIFTITKLNLQYGVPKEKH
notes: CtaF, subunit of the cytochrome aa3 oxidase, Corynebacterium glutamicum; source: endogenous, purified from C. glutamicum membranes as part of the supercomplex (DDM, DEAE Sepharose, size exclusion)

Legend:
[1] = molecular target: T1, cyt bcc-aa3 (III2-IV2) supercomplex; quinone sites of the cyt bcc complex (QcrB/QcrA) (Corynebacterium glutamicum, UniProt Q79VE8+Q79VE9); assay: cryo-EM structure, […] Å; assay type: binding; details: 20 µM stigmatellin, 2.5 mM azide also present; Qo site, transition-state analogue; QcrB and His355 of QcrA
T1 construct: native supercomplex purified from C. glutamicum membranes in DDM; dimer of 13-subunit protomers; with Cytochrome bc1 complex cytochrome c subunit; Cytochrome c oxidase subunit 1; Cytochrome c oxidase subunit 2; Cytochrome c oxidase subunit 3; Cytochrome c oxidase polypeptide 4; Supercomplex subunit P29; Supercomplex subunit P20; Supercomplex subunit P12; Supercomplex subunit P8; Supercomplex subunit P6; ThiX
T1 sequence (Q79VE9 1-539): B2 chain
T1 sequence (Q79VE8 1-408): B1 chain

[2] = molecular target: T2, cyt bcc-aa3 (III2-IV2) supercomplex; QcrB sites (Corynebacterium glutamicum, UniProt Q79VE9); assay: cryo-EM structure; absorption spectroscopy; assay type: binding; details: co-purified endogenous pigment; narrow tunnel of QcrB near Qo site
T2 construct: native supercomplex purified from C. glutamicum membranes in DDM; dimer of 13-subunit protomers; with Cytochrome bc1 complex Rieske iron-sulfur subunit; Cytochrome bc1 complex cytochrome c subunit; Cytochrome c oxidase subunit 1; Cytochrome c oxidase subunit 2; Cytochrome c oxidase subunit 3; Cytochrome c oxidase polypeptide 4; Supercomplex subunit P29; Supercomplex subunit P20; Supercomplex subunit P12; Supercomplex subunit P8; Supercomplex subunit P6; ThiX
T2 sequence (Q79VE9 1-539): B2 chain

[3] = molecular target: B2; assay: cryo-EM structure; supercomplex purified from C. glutamicum membranes in DDM, 10 mg/ml; with 20 µM stigmatellin and 2.5 mM sodium azide (2.8 Å) and as isolated (3.1 Å); details: both partners purified
[4] = molecular target: the molecule itself; assay: as above
[5] = molecular target: T3, CtaD, subunit of the cyt aa3 oxidase (haem a, haem a3, CuB) (Corynebacterium glutamicum, UniProt Q79VD7 1-584, His265 covalently bound to Tyr269); assay: as above; details: both partners purified
T3 construct: CtaD, catalytic subunit (haem a, haem a3, CuB) of the cytochrome aa3 oxidase, Corynebacterium glutamicum; source: endogenous, purified from C. glutamicum membranes as part of the supercomplex (DDM, DEAE Sepharose, size exclusion)
T3 sequence (looked up): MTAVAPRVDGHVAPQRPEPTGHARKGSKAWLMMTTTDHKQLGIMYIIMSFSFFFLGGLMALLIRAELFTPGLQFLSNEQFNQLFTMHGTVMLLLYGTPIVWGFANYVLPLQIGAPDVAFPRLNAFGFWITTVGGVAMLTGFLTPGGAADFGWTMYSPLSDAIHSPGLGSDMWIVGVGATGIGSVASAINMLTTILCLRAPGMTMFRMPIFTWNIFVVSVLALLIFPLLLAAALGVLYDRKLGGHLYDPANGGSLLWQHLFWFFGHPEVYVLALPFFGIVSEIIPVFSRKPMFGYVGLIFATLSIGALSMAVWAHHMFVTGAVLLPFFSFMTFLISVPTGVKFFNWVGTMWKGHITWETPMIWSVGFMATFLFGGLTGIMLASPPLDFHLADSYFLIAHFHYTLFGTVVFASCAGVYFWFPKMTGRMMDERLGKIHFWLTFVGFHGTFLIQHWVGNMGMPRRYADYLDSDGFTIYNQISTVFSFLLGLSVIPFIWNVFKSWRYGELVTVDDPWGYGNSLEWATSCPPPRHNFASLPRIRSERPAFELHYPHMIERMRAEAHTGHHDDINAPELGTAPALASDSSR

C/C=C(C)/C=C/C=C/[C@H](OC)[C@@H](C)[C@@H](OC)[C@@H](C)CCc1oc2c(O)c(OC)cc(OC)c2c(=O)c1C [stigmatellin]
cryo-EM structure, 2.8 Å [1]: The cryo-EM map clearly resolves stigmatellin bound between FeS and haem bL

CC(C)=CCC/C(C)=C/C=C/C(C)=C/C=C/C(C)=C/C=C/C=C(C)/C=C/C=C(C)/C=C/C=C(\C)CCC=C(C)C [lycopene]
cryo-EM structure; absorption spectroscopy [2]: a lycopene molecule is resolved in a narrow tunnel of QcrB

B1
binding result [3]: binds
binding result [4]: binds

B2
binding result [5]: binds

B3
binding result [3]: binds

B4
binding result [3]: binds
